Ends that are not written are not given here.
Assays:
Settings in all cases: both partners purified
[1] = molecular target: T1, recombinant bactericidal/permeability-increasing protein (rBPI) (human, UniProt P17213 32-487, labelled with NT647 (NHS labelling kit) in the MST experiments only); assay: NanoDSF (thermal shift)
T1 construct: also called rBPI NT647
T1 sequence (looked up): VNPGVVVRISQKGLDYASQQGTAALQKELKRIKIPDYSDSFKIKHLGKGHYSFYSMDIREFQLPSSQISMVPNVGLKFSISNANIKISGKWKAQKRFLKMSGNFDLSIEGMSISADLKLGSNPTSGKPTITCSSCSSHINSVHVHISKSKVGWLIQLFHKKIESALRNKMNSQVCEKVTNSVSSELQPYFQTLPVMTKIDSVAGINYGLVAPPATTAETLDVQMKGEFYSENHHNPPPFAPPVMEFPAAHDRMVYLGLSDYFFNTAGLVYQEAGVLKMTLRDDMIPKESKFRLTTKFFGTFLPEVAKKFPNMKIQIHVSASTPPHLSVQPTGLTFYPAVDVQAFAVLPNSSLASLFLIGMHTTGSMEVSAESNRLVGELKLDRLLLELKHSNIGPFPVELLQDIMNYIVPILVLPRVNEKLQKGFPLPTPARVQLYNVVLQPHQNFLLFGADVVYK

[2] = molecular target: T1, recombinant …; assay: ELISA; BPI microtiter binding assay, competition: 20 nM BPI pre-incubated 30 min with increasing lipopeptide, loaded on LPS biotin (2 μg/ml) on streptavidin plates, 1 h 37°C; 150 mM NaCl, 50 mM HEPES, 1 g/l BSA; bound BPI detected with anti-human BPI antibody
[3] = molecular target: T1, recombinant …; assay: MST

B1: (R)-Pam2CSK4 (peptide)
peptide: CSKKKK
modifications: not fully specified (residue 1); printed as (R)-Pam2CSK4
notes: also called di-acylated lipopeptide; source: synthetic peptide; bought: EMC Microcollections
- binding result [1]: binds

B2: PamCSK4 (peptide)
peptide: CSKKKK
modifications: not fully specified
notes: also called mono-acylated lipopeptide; source: synthetic peptide; bought: EMC Microcollections
- binding result [2]: binds

B3: (R)-Pam3CSK4 (peptide)
peptide: CSKKKK
notes: also called tri-acylated bLP; source: synthetic peptide; bought: EMC Microcollections
- Kd [3]: 162 ± 23.5 nM

— paper PMC6293271, “Bactericidal/Permeability-Increasing Protein Is an Enhancer of Bacterial Lipoprotein Recognition” (Frontiers in Immunology, 2018)
